Data: patent US20220380463A1 (Adimab, published 2022)

B1: SAD10320_P02_C04 (ADI-48648) (antibody, V domains shown)
VH: QVQLVQSGAEVKKPGASVKVSCKASGFNIKDYYMHWVRQAPGQRLEWMGWIDLENANTIYDAKFQGRVTITRDTSASTAYMELSSLRSEDTAVYYCARDAYGRYFYDVWGQGTLVTVSS
VL: DIVMTQSPDSLAVSLGERATINCKSSQSLLNARTGKNYLAWYQQKPGQPPKLLIYWASTRESGVPDRFSGSGSGTDFTLTISSLQAEDVAVYYCKQSHTRRTFGGGTKVEIK
notes: IgG; also called Ab71
B2: SAD10319_P01_F02 (ADI-48624) (antibody, V domains shown)
VH: QVQLVQSGAEVKKPGASVKVSCKASGYTFESYDMHWVRQAPGQRLEWMGWIDAGTGNTKYSQKFQGRVTITADESTSTAYMELSSLRSEDTAVYYCARDHYGHYFYDVWGQGTLVTVSS
VL: DIVMTQSPDSLAVSLGERATINCKSSQSLLNARTGKNYLAWYQQKPGQPPKLLIYWASTRESGVPDRFSGSGSGTDFTLTISSLQAEDVAVYYCKQSYSRRTFGGGTKVEIK
notes: IgG; also called Ab241
B3: SAD10318_P03_E09 (ADI-48611) (antibody, V domains shown)
VH: QVQLVQSGAEVKKPGASVKVSCKASGFNIKDYYMHWVRQAPGQRLEWMGWIDLENANTIYDAKFQGRVTITRDTSASTAYMELSSLRSEDTAVYYCARDAYGHYHYDVWGQGTLVTVS
VL: DIVMTQSPDSLAVSLGERATINCKSSQSLLNARTGHNHLAWYQQKPGQPPKLLIYWASTRESGVPDRFSGSGSGTDFTLTISSLQAEDVAVYYCKQSYHHRTFGGGTKVEIK
notes: IgG; also called Ab207
B4: SAD10318_P02_C05 (ADI-48597) (antibody, V domains shown)
VH: QVQLVQSGAEVKKPGASVKVSCKASGFNIKDYYMHWVRQAPGQRLEWMGWIDLENANTIYDAKFQGRVTITRDTSASTAYMELSSLRSEDTAVYYCARDAHHRYFYDVWGQGTLVTVSS
VL: DIVMTQSPDSLAVSLGERATINCKSSQSLLNARTGHNHLAWYQQKPGQPPKLLIYWASTRESGVPDRFSGSGSGTDFTLTISSLQAEDVAVYYCKQSHSHRTFGGGTKVEI
notes: IgG; also called Ab180
B5: SAD10319_P01_H01 (ADI-48623) (antibody, V domains shown)
VH: QVQLVQSGAEVKKPGASVKVSCKASGYTFDDYAMHWVRQAPGQRLEWMGWIDAGTGDTKYSQKFQGRVTITRDTSASTAYMELSSLRSEDTAVYYCARDHYHRYFYDVWGQGTLVTVSS
VL: DIVMTQSPDSLAVSLGERATINCKSSQSLLNARTGKNYLAWYQQKPGQPPKLLIYWASTRESGVPDRFSGSGSGTDFTLTISSLQAEDVAVYYCKQSYSRRTFGGGTKVEIK
notes: IgG; also called Ab235
B6: SAD10319_P01_H02 (ADI-48625) (antibody, V domains shown)
VH: QVQLVQSGAEVKKPGASVKVSCKASGYTFTDYAMHWVRQAPGQRLEWMGWINPSTGATVYSQKFQGRVTITRDTSASTAYMELSSLRSEDTAVYYCARDAYHHYFYDVWGQGTLVTVSS
VL: DIVMTQSPDSLAVSLGERATINCKSSQSLLNARTGKNYLAWYQQKPGQPPKLLIYWASTRESGVPDRFSGSGSGTDFTLTISSLQAEDVAVYYCKQSYSRRTFGGGTKVEIK
notes: IgG; also called Ab242
B7: SAD10319_P01_C01 (ADI-48621) (antibody, V domains shown)
VH: QVQLVQSGAEVKKPGASVKVSCKASGYTFTDYDMHWVRQAPGQRLEWMGWIDAGTGLTKYSQKFQGRVTITRDTSASTAYMELSSLRSEDTAVYYCARDHYGHYFYDVWGQGTLVTVSS
VL: DIVMTQSPDSLAVSLGERATINCKSSQSLLNARTGKNYLAWYQQKPGQPPKLLIYWASTRESGVPDRFSGSGSGTDFTLTISSLQAEDVAVYYCKQSYSRRTFGGGTKVEIK
notes: IgG; also called Ab230
B8: SAD10319_P01_A01 (ADI-48619) (antibody, V domains shown)
VH: QVQLVQSGAEVKKPGASVKVSCKASGYTFASYAMHWVRQAPGQRLEWMGWINPDTGNTVYSQKFQGRVTITRDTSASTAYMELSSLRSEDTAVYYCARDAYHHYFYDVWGQGTLVTVSS
VL: DIVMTQSPDSLAVSLGERATINCKSSQSLLNARTGKNYLAWYQQKPGQPPKLLIYWASTRESGVPDRFSGSGSGTDFTLTISSLQAEDVAVYYCKQSYSRRTFGGGTKVEIK
notes: IgG; also called Ab229
B9: SAD10320_P03_F09 (ADI-48656) (antibody, V domains shown)
VH: QVQLVQSGAEVKKPGASVKVSCKASGFNIKDYYMHWVRQAPGQRLEWMGWIDLENANTIYDAKFQGRVTITRDTSASTAYMELSSLRSEDTAVYYCARDAYGHDFYDVWGQGTLVTVSS
VL: DIVMTQSPDSLAVSLGERATINCKSSQSLLNARTGKNYLAWYQQKPGQPPKLLIYWASTRESGVPDRFSGSGSGTDFTLTISSLQAEDVAVYYCKQSYHRRTFGGGTKVEIK
notes: IgG; also called Ab101
B10: SAD10320_P02_E04 (ADI-48649) (antibody, V domains shown)
VH: QVQLVQSGAEVKKPGASVKVSCKASGFNIKDYYMHWVRQAPGQRLEWMGWIDLENANTIYDAKFQGRVTITRDTSASTAYMELSSLRSEDTAVYYCARDAYHEYFYDVWGQGTLVTVSS
VL: DIVMTQSPDSLAVSLGERATINCKSSQSLLNARTGKNYLAWYQQKPGQPPKLLIYWASTRESGVPDRFSGSGSGTDFTLTISSLQAEDVAVYYCKQSHVRRTFGGGTKVEIK
notes: IgG; also called Ab72
B11: SAD10320_P02_H05 (ADI-48652) (antibody, V domains shown)
VH: QVQLVQSGAEVKKPGASVKVSCKASGFNIKDYYMHWVRQAPGQRLEWMGWIDLENANTIYDAKFQGRVTITRDTSASTAYMELSSLRSEDTAVYYCARDAHHRYFYDVWGQGTLVTVSS
VL: DIVMTQSPDSLAVSLGERATINCKSSQSLLNARTGKNYLAWYQQKPGQPPKLLIYWASTRESGVPDRFSGSGSGTDFTLTISSLQAEDVAVYYCKQSHSRRTFGGGTKVEIK
notes: IgG; also called Ab81
B12: SAD10320_P02_F05 (ADI-48651) (antibody, V domains shown)
VH: QVQLVQSGAEVKKPGASVKVSCKASGFNIKDYYMHWVRQAPGQRLEWMGWIDLENANTIYDAKFQGRVTITRDTSASTAYMELSSLRSEDTAVYYCARDAYGRYHYDVWGQGTLVTVSS
VL: DIVMTQSPDSLAVSLGERATINCKSSQSLLNARTGKNYLAWYQQKPGQPPKLLIYWASTRESGVPDRFSGSGSGTDFTLTISSLQAEDVAVYYCKQSYRHRTFGGGTKVEIK
notes: IgG; also called Ab79
B13: SAD10320_P04_H11 (ADI-48662) (antibody, V domains shown)
VH: QVQLVQSGAEVKKPGASVKVSCKASGFNIKDYYMHWVRQAPGQRLEWMGWIDLENANTIYDAKFQGRVTITRDTSASTAYMELSSLRSEDTAVYYCARDAYGHVFYDVWGQGTLVTVSS
VL: DIVMTQSPDSLAVSLGERATINCKSSQSLLNARTGKNYLAWYQQKPGQPPKLLIYWASTRESGVPDRFSGSGSGTDFTLTISSLQAEDVAVYYCKQSYQHRTFGGGTKVEIK
notes: IgG; also called Ab116
B14: SAD10320_P02_D05 (ADI-48650) (antibody, V domains shown)
VH: QVQLVQSGAEVKKPGASVKVSCKASGFNIKDYYMHWVRQAPGQRLEWMGWIDLENANTIYDAKFQGRVTITRDTSASTAYMELSSLRSEDTAVYYCARDATHRYFYDVWGQGTLVTVSS
VL: DIVMTQSPDSLAVSLGERATINCKSSQSLLNARTGKNYLAWYQQKPGQPPKLLIYWASTRESGVPDRFSGSGSGTDFTLTISSLQAEDVAVYYCKQSHTRRTFGGGTKVEI
notes: IgG; also called Ab77
B15: SAD10320_P04_G10 (ADI-48658) (antibody, V domains shown)
VH: QVQLVQSGAEVKKPGASVKVSCKASGFNIKDYYMHWVRQAPGQRLEWMGWIDLENANTIYDAKFQGRVTITRDTSASTAYMELSSLRSEDTAVYYCARDAYGHDFYDVWGQGTLVTVSS
VL: DIVMTQSPDSLAVSLGERATINCKSSQSLLNARTGKNYLAWYQQKPGQPPKLLIYWASTRESGVPDRFSGSGSGTDFTLTISSLQAEDVAVYYCKQSYSRRTFGGGTKVEIK
notes: IgG; also called Ab108
B16: SAD10320_P02_C06 (ADI-48654) (antibody, V domains shown)
VH: QVQLVQSGAEVKKPGASVKVSCKASGFNIKDYYMHWVRQAPGQRLEWMGWIDLENANTIYDAKFQGRVTITRDTSASTAYMELSSLRSEDTAVYYCARDAYGRYFYDVWGQGTLVTVSS
VL: DIVMTQSPDSLAVSLGERATINCKSSQSLLNARTGKNYLAWYQQKPGQPPKLLIYWASTRESGVPDRFSGSGSGTDFTLTISSLQAEDVAVYYCKQSGHRRTFGGGTKVEIK
notes: IgG; also called Ab84
B17: SAD10320_P04_E10 (ADI-48657) (antibody, V domains shown)
VH: QVQLVQSGAEVKKPGASVKVSCKASGFNIKDYYMHWVRQAPGQRPEWMGWIDLENANTIYDAKFQGRVTITRDTSASTAYMELSSLRSEDTAVYYCARDAYGHDFYDVWGQGTLVTVSS
VL: DIVMTQSPDSLAVSLGERATINCKSSQSLLNARTGKNYLAWYQQKPGQPPKLLIYWASTRESGVPDRFSGSGSGTDFTLTISSLQAEDVAVYYCKQSYSRRTFGGGTKVEIK
notes: IgG; also called Ab106
B18: SAD10320_P03_D09 (ADI-48655) (antibody, V domains shown)
VH: QVQLVQSGAEVKKPGASVKVSCKASGFNIKDYYMHWVRQAPGQRLEWMGWIDLENANTIYDAKFQGRVTITRDTSASTAYMELSSLRSEDTAVYYCARDAYGHDFYDVWGQGTLVTVSS
VL: DIVMTQSPDSLAVSLGERATINCKSSQSLLNARTGKNYLAWYQQKPGQPPKLLIYWASTRESGVPDRFSGSGSGTDFTLTISSLQAEDVAVYYCKQSWHRRTFGGGTKVEIK
notes: IgG; also called Ab100

Key:
[1] = target: T1, human CD3 on CD3+ Jurkat cells (human, UniProt P07766 23-207); assay: flow cytometry, 100 nM IgG on CD3+ Jurkat cells, pH 7.4
T1 construct: whole, on cells; Native CD3 complex on cells; the other CD3 chains are not specified for this assay; also called Human CD3+ Jurkat
How it was run: (§1)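 Jurkat cells incubated 20 min on ice with 100 nM yeast-produced IgG in PBS + 0.1% BSA at pH 6.0 or pH 7.4, with all washes and staining at the same pH. Bound antibody detected with anti-human IgG-RPE, dead cells excluded by propidium iodide; MFI measured by flow cytometry.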

[2] = target: T1, human CD3 on CD3+ Jurkat cells; assay: flow cytometry, 100 nM IgG on CD3+ Jurkat cells, pH 6.0
How it was run: as §1

[3] = target: T1, human CD3 on CD3+ Jurkat cells; assay: flow cytometry on CD3+ Jurkat cells, ratio of MFI at pH 6.0 to pH 7.4
How it was run: as §1

T1 sequence (P07766 23-207): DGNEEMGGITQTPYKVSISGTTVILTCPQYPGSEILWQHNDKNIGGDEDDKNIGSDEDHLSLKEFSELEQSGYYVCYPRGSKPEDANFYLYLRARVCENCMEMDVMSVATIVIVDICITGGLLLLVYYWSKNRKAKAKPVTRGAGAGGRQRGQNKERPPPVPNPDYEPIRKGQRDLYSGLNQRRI

Binder | MFI pH 7.4 [1] [MFI] | MFI pH 6.0 [2] [MFI] | MFI pH 6.0/MFI pH 7.4 [3]
B1 | 5140 | 6160 | 1.2
B2 | 58 | 895 | 15.4
B3 | 47 | 123 | 2.6
B4 | 61 | 1320 | 21.7
B5 | 147 | 1760 | 12
B6 | 128 | 1730 | 13.6
B7 | 49 | 731 | 14.8
B8 | 129 | 1750 | 13.5
B9 | 38 | 185 | 4.9
B10 | 639 | 2320 | 3.6
B11 | 4760 | 5750 | 1.2
B12 | 4110 | 5620 | 1.4
B13 | 44 | 81 | 1.8
B14 | 5430 | 6010 | 1.1
B15 | 316 | 113 | 0.4
B16 | 4890 | 5590 | 1.1
B17 | 67 | 786 | 11.7
B18 | 581 | 1180 | 2
